# Experiment: soluble on expression in E. coli; label from the status in PepcDB or PDB records
row,Sequence,soluble on expression in E. coli
1,MNVLGRITAMPDLPEPLEGLKEIAYNLWWSWNPEAAELFQELDPALWKRFRGNPVKLLLELDPARLEALSASGYAARVQATREALRAYLEARRTKRGPLVAYFSAEYGFHSSLPIYAGGLGVLAGDHVKAASDLGLNLVGVGLFYHEGYFHQRLSPEGEQVEVYEPLRPEELPLVPVQDAEGRPVRVAVEFPGRLVHVGGYRVQVGAVPVYLLTTDLPENAPEDRQITARLYAAGLEARIQQELVLGLGGVRFLRALGLAPAFFHMNEGHSAFLGLERLRELVAEGYPFREALELARASALFTTHTPVPAGHDVFPLDLVDRYLGGFWEKLGVDRDTFLGLGLEEKPWGPVFSMSNLALRTAAQANGVSRLHGEVSRNMFRHLWPGLLAEEVPIGHVTNGVHTWTFLHPRLRRHYAEVFGPEWVERPEDPETWRVEGLGEAFWRIRQDLKLFLVREVRQRLYEQRRRNGEGPARLREAEKALDPEALTIGFARRFATYKRAVLLFKDPERLLRILKGPYPVQFVFAGKAHPKDEAGKAYLQELVSKIREYGLEDRMVVLEDYDMYLARVLTHGSDVWLNTPRRPMEASGTSGMKAALNGALNLSVLDGWWAEAYNGKNGFAIGDERVYESEEAQDVADAQALYDLLESEVIPLFYAKGLEGYSSGWMSMVHESLRTVGPYFSAGRMVRDYLALYERGALWEKEARARLEALKAFAEALSAFHALGVRPEVPGDLTLNGGRLEVGSVLEGEVPEGLRPHLRVQLVVRRLGGGLEVVDLEEVAPGRYRTAFRPTRPGSYTYGLRLALLHPVTGRVEWVRWA,soluble
2,MNVLKLTNGREISYLNEVEIRMGIDELNGEERYKKELENMETSDITVHKYEGGFKIWECTVDLCDYIEENQTLFAGKSVLELGCGAALPSILTAVHGAKEVFAQDFNASVIEFFTLPNFEENPHSAVVQGEAMGWEEVPNRLSGRKFDFILSSETIYNEDDYQALHDAVAATIKDDGVAWFAAKFFYFGVGGSVPAFCEFINQRGILQASEAKVIAASVPRRIVEIRKK,not soluble
3,MNYLESEISALYASAHELCYLGMDGRPIYSDQFTRLNRDVFSQANALYDKRGNSHEEEARLCLSLLMGYNATLYNNGDKEERIQHILDRCWDVLEHLPASLLKVQLLVYCYGEVFDEELAREAQAIIDTWQDRKLSEEEREVVERLKDVQENPYPWSEVE,not soluble
4,MNYMELYDVDEFWKFQMKVGLVKKAEKIKRTKKLIKLIVDFGNEERTIVTGIADQIPPEELEGKKFIFVVNLKPKKFSGVESQGMLILAETEDGKVYLIPVPEEVPVGARVW,soluble
5,MNYRDLTLRERQVLGIIIQSYVVSAMPVGSRTIARNYNLGLSDATIRNVMADLEADGFISQPHTSAGRVPTDKGYRYYVDLIMNVSRIDEEEKRMIDDRFSNRNSELKGTSAEVLGTAARVLGSISRQLAVVLPPRLSNAVFERLDIVQLASSRIMVVIAIQSLFVKTIVMELNAEISRQKIDAVVDVLNERLPGLTLEEIRSTIAQRLSDFKGSEELMNSIVSSADTLFDESSILEQLYVSGTENIVDQPEFKQPEKVRDIITMIEDKFGMARLVDNAVPSALRQVSECEVAISIGTENRTGKAADLTIVSSPYFAGKMIGRVGVMGPKRMNYEHAVRVVNYMAGCLSEALSGNN,not soluble
6,MNYTETVAYIHSFPRLAKTGDHRRILTLLHALGNPQQQGRYIHVTGTNGKSTAANAIAHVLEASGLTVGLYTSPFIMRFNERIMIDHEPIPDAALVNAVAFVRAALERLQQQQADFNVTEFEFITALGYWYFRQRQVDVAVIEVGIGGDTDSTNVITPVVSVLTSVALDHQKLLGHTITAIAKHKAGIIKRGIPVVTGNLVPDAAAVVAAKVATTGSQWLRFDRDFSVPKAKLHGWGQRFTYEDQDGRISDLEVPLVGDYQQRNMAIAIQTAKVYAKQTEWPLTPQNIRQGLAASHWPARLEKISDTPLIVIDGAHNPDGINGLITALKQLFSQPITVIAGILADKDYAAMADRLTAAFSTVYLVPVPGTPRALPEAGYEALHEGRLKDSWQEALAASLNDVPDQPIVITGSLYLASAVRQTLLGGKS,soluble
7,MPAFDKPKVELHVHLDGSIKPETILYYGRRRGIALPANTAEGLLNVIGMDKPLTLPDFLAKFDYYMPAIAGCREAIKRIAYEFVEMKAKEGVVYVEVRYSPHLLANSKVEPIPWNQAEGDLTPDEVVALVGQGLQEGERDFGVKARSILCCMRHQPNWSPKVVELCKKYQQQTVVAIDLAGDETIPGSSLLPGHVQAYQEAVKSGIHRTVHAGEVGSAEVVKEAVDILKTERLGHGYHTLEDQALYNRLRQENMHFEICPWSSYLTGAWKPDTEHAVIRLKNDQANYSLNTDDPLIFKSTLDTDYQMTKRDMGFTEEEFKRLNINAAKSSFLPEDEKRELLDLLYKAYGMPPSASAGQNLAENLYFQ,soluble
8,MPAHSLFSLSVSAALLLSAVPLPAQSAGWKPAEQIKTYAISGNTGGGLYQSIGERGPTAGVQAIAHTTFKLTWRRDYRPQPDGACVLVTARPNLTIIYTWPKAPSNLPPAVAASWKTFISGVETHERVHGEHILDMVKKIEAFSTGLRAENDPKCQKVRVVLQQRLGELSNEQRQRGRDFDRDELSPGGRVHQLILTLANGP,soluble
9,MPAINAKRVYRIMRQNALLLERKPAVPPSKRAHTGRVAVKESNQRWCSDGFEFCCDNGERLRVTFALDCCDREALHWAVTTGGFNSETVQDVMLGAVERRFGNDLPSSPVEWLTDNGSCYRANETRQFARMLGLEPKNTAVRSPESNGIAESFVKTIKRDYISIMPKPDGLTAAKNLAEAFEHYNEWHPHSALGYRSPREYLRQRACNGLSDNRCLEILEHHHHHH,soluble
10,MPAKIPITDNHMHIDPRARGLEAVKEFKNSGGTHIILVTKPSWSLGIAVKKPEDYLAVFDETVEIASKIREIGVGAFPVLGVHPAEISKITEYMDLSEAVETMKKGLELAAGYVERGLAVGIKSGRPHYPVPSDVWEASNEIMEHAFSLGKEQDCAVQLHTESVQEPELKDIAERARKTGIKMYRVVKHYSPPLVKTCEELGIFPGVISVKGAIEKAIEEGTRFMMETDYIDDPDRPGAVLGPKTIPKRTIKLMETYGEEPFWTIHKENPEKVYDIEIEL,not soluble
11,MPCTDKGMIDLARKTVKLTTLRQGEEATIAGISKACRGANRRRLLDLGFVRGSRIAIDLTSPLGNPTAYVVRGTAIALRRDQARYILIYR,not soluble
12,MPDAVVVGAGPNGLVAANLLADAGWSVTVLEEQPEPGGAVRHDGEVAPGFVNDLFSSFYPLAAASPVLGGLRLEEHGLRWAHAPHVLAHPLTDGTCAVLDRDVATTAASLDAFALGDGAAWERLHAVWDRYRADILDALFTPFPPVRATARLALRLRGAGGLRLARTLVLPVRRMGEEEFRGEGGRLLLAGNALHADLAPEAAGSGGFGWLMSMLGQTYGFPVPVGGSGALTEALVHRLRARGGTLHCGRRVERVLVRDRRAVGVRTADGETVTARRAVLANVSVPALYGRLVAPADLPDQVLTDLRRFQWDFATFKVDWALDGPVPWQCEAAARAGTVHLSDGLDELTRFAAQIAMRQVPDRPFSLFGQMTTTDPTRSPRGTESAWAYTHVPHDIRADAGEEGITGTWDTGERELMADRVERQVERFAPGFRALIRARRVLAPPTLQALDANLEGGAINGGTTAMHQQLVFRPVPGTGRPETPVAGLFLASAGAHPGGGVHGAPGANAARAALRQHRFAGLARIQRALTRRDRAGDRHLEHHHHHH,not soluble
13,MPDLMHSELTMSGPEQSLLAGALLGAGLPADAHRHLELAGRDYQSEALAEQHLREAHLLAPDHAAVLIGLYRFYFYKGRLGEALEVAQACLCKAARDNGLASDWRKVRRGDAEFSSYSAVLPRFYLFALKAYAYLQMRLGQLDEGHAAVEKLLELDPTDKVGAAVLLDVWRRIGLEHHHHHH,not soluble
14,MPDSPVDVKTQSRLTPPTMPPPPTTQGAPRTSSFTPTTLTNGTSHSPTALNGAPSPPNGFSNGPSSSSSSSLANQQLPPACGARQLSKLKRFLTTLQQFGNDISPEIGERVRTLVLGLVNSTLTIEEFHSKLQEATNFPLRPFVIPFLKANLPLLQRELLHCARLAKQNPAQYLAQHEQLLLDASTTSPVDSSELLLDVNENGKRRTPDRTKENGFDREPLHSEHPSKRPCTISPGQRYSPNNGLSYQPNGLPHPTPPPPQHYRLDDMAIAHHYRDSYRHPSHRDLRDRNRPMGLHGTRQEEMIDHRLTDREWAEEWKHLDHLLNCIMDMVEKTRRSLTVLRRCQEADREELNYWIRRYSDAEDLKKGGGSSSSHSRQQSPVNPDPVALDAHREFLHRPASGYVPEEIWKKAEEAVNEVKRQAMTELQKAVSEAERKAHDMITTERAKMERTVAEAKRQAAEDALAVINQQEDSSESCWNCGRKASETCSGCNTARYCGSFCQHKDWEKHHHICGQTLQAQQQGDTPAVSSSVTPNSGAGSPMDTPPAATPRSTTPGTPSTIETTPR,soluble
15,MPEFDFSPITEGIYNVIETEEKVLTSLPEETITQKRNRQNRTIKQILGHLIDSTSNNHQRMIRLQYSKDLLFFPDYRQDNDLWIALQDYQHTDWNNLIQLWKFFNLHIIQVIKSVDQTKLDSYWCDFEGTKVTLKEMIEGYLDHLNLHIQEIHELI,not soluble
16,MPEGFDAYCICTGTPTARDLSIPGRELKGIHFALEMLAQQNRILEGQTFPKDKLVNAKGKKVLVIGGGDTGSDCIGTSVRQGATSVTQIEIMPKPPVGHNPSTPWPQWPVVFKTTSSHEEGCTRRWCLTSNQFLGKNGKVTGVEVEEVEWTPATDGGRPTMNLTGKKEVIEADMVLLAMGFLKPEQPKFAENVFLAGDAATGASLVVRAMAGGRKAAADIDHYLEHHHHHH,not soluble
17,MPEGPEVALTADILEKYFKGKTLEYIDFISGRYSKSEPEGYDDFIANLPLKVSNVDTKGKFLWFELFDPNDKSNKWYIWNTFGLTGMWSLFEAKYTRAVLSFDNELMAYFSDMRNFGTFKFSNSEKELKRKLNELGPDFLKNDDIDISKIKKYKQPIVALLMDQKKIGSGLGNYLVAEILYRAKIDPHKLGSNLTDQEIENLWYWIKYETKLAYDSNHIGYMVNLENESSKIGRKNYHPNIHPTEKEFDFLVYRKKKDPNGNKVIADKIIGSGKNKRTTYWAPAIQKLEHHHHHH,soluble
18,MPENVTVIGAGLAGSEATWQLAKRGIHVDLYEMRPKKETPAHETGEFAELVCTNSMRSNQLSNAVGLLKEEMRHLDSLIMKAADMTQVPAGGALAVDRDSFSKYVTDTLKGMDNVTVHEEEIVKIPEDGITIIATGPLTSDALAKQIQAFSGTDSLHFFDAAAPIIAADSIDMDIVYKKSRYDRGEAAYLNCPMSKEQYEKFANELIKAETAQLHGFENSDVFEGCMPIEVMAARGAKTMLFGPLKPVGLEDPHTGETPYAVVQLRQDNAAASMYNIVGFQTHLKFGEQKRVFSMIPGLENARFVRYGKMHRNTYMASPNVLTASYEAKNRPGLFFAGQMTGVEGYVESAGSGLVAGINAAREALGKETVAFPKNTALGSMANYVTTTSAKHFQPMNASFALLPALEGKKIRKKRERHEKISERGLASLDAFKTEVLDLEHHHHHH,soluble
19,MPEVVFYPQNKSINVEEGTTILQAARSAGVIIESPCNGTGTCGKCKVRLDEKSLPNVLAKSRHYLSKEEEEQGYVLACETQITGDIKVELGENKQNGTLKILSRGHSFNIDLKPFIRKEYFVHEDVTKVFAGKEQLGIEAGDTTKENYGAVVDIGTTTLVASIVNLNNGDEIGTSSALNPQAVHAQDVLSRIKFSSDADGLKVMHSELTDKINSMIGKIALRAGISKEHIYEIVFSGNTCMLHLASNTCPESLGKYPYTPKISGAAYLDAAKYNIDISPFGIIYLPPIISAYVGADIVSGILASQLHEKDGVILFVDIGTNGEMVLASCGNLSATSTAAGPAFEGMNITCGMRAGEAAIEFFEIEEQGSINIKVIGETEAAGICGSGLLDMVGEFAAHGVIKKNGQFIDPESENVLHPKLAERLVRQDGKWIFKVTDKVFLSQKDIRQVQLAKGAVRAGIEFLLENKGVRASDVDKVLIAGSFGYHLREKSLINIGLLPKEFEGKVEFVGNTSLSGAKAFLLNQTYREKMKETVKSVEVLELANYKDFDRVFVRCLSFLEHHHHHH,not soluble

# — the DeepSol protein solubility set
